Results published in patent publication US20250257130A1 (NONA BIOSCIENCES SUZHOU, published 2025).

B1: PR000374 (antibody, human IgG1, kappa, V domains shown)
VH: EVQLVESGGGLVQPGRSLRLSCTASGSDINDYPITWVRQAPGQGLEWIGFINSGGSTWYASWVKGRFTISRDDSKSIAYLQMNSLKTEDTAVYYCARGYSTYYRDFNIWGQGTLVTVSS
VL: DIQMTQSPSSLSASVGDRVTINCQASQSIDSNLAWFQQKPGQPPKLLIYRASNLASGVPDRFSGSGSGTDFTLTISSLEAEDVATYYCLGGVGAVSYRTSFGGGTKVEIKR
notes: positive control; also called Bench marker 1
B2: PR303191 (antibody, human IgG1, V domains shown)
VH: EVQLLESGGGLVQPGGSLRLSCAASGFIFGSYAMSWVRQAPGKGLEWVSGISGTGGNTYYADSVKGRFTISRDNSKNTLYLQMNSLRAEDTAVYFCERGITIHGVVIIPPDYRGQGTLVTVSS
notes: HCAb (heavy chain-only, human IgG1 Fc), no light chain
B3: PR303125 (antibody, human IgG1, V domains shown)
VH: EVQLLESGGGLVQPGGSLRLSCAASGFTFSSHAMSWVRQAPGKGLEWVSAISGSGDSTHYAASVKGRFTISRDNSKNTLYLQMNSLRAEDTAVYYCETLLRFLESLGNDGFKIWGQGTMVTVSS
notes: as for B2

Assays:
[1] = molecular target: T1, Human ROR1-ECD-his (Acro Biosystems RO1-H522y) (human, UniProt Q01973 30-406); experiment: BLI in-tandem, row = 1st Ab; competitor (2nd Ab): PR007424
T1 construct: extracellular domain; bought protein; also called hROR1-ECD-his; hu-ROR1-ECD-his
T1 sequence (Q01973 30-406): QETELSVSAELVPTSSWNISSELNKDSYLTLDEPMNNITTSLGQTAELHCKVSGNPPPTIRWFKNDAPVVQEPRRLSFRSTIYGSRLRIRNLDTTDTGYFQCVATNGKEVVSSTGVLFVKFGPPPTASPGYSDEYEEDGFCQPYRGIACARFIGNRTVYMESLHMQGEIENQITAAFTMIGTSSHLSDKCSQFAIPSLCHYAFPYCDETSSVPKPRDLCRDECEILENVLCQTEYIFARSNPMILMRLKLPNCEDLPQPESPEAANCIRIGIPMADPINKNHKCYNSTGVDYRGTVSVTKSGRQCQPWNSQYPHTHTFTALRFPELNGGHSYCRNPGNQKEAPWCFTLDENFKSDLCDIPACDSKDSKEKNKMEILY
Text: (§1) To determine if anti-ROR1 antibodies bind to human ROR1 on different or approximate binding epitopes, the ForteBio Octet® RED96e platform was used to perform epitope competition experiments on the anti-ROR1 antibodies. Human ROR1 protein (Acrobiosystems, #RO1-H522y) was biotinylated and then captured onto SA biosensors (ForteBio, #18-5020) to reach loading level of 0.3-0.4 nm. The in-tandem competition assay format was applied and it contains two association steps. Firstly, the antigen-loaded biosensors bind to each antibody (a.k.a, First antibody, 1st Ab) with a saturating concentration of 200 nM for 180 seconds to reach equilibrium and then secondly bind to the competing antibodies (a.k.a, Second antibody, 2nd Ab) of 200 nM for 180 seconds. The second binding signals were recorded as the 100% signal of each antibody when the first antibodies were replaced by kinetics buffer. All the binding data were analyzed using ForteBio Data Analysis 11.0 software. The inhibition rate is calculated by the following formula: […]

[2] = molecular target: T2, cynomolgus ROR1 on CHO-K1-cynoROR1 cells (cynomolgus monkey, UniProt A0A2K5WTX7 30-937); experiment: flow cytometry on CHOK1-cynoROR1 cells, MFI (APC-A Median) [middle panel, letter not given]
T2 construct: whole, on cells
Procedure: (§2) Binding of recombinant anti-ROR1 antibodies to human or cynomolgus ROR1-overexpressing cells was tested by flow cytometry. In this example, ROR1-expressing cell lines are HEK293T cell lines that had been transfected to express human ROR1 on the surface (HEK293T-hu ROR1, KYINNO BIOTECHNOLOGY CO., LTD, Catalog #KC-1018), CHO-K1 cell lines that had been transfected to express cynomolgus ROR1 (CHOK1-cyno ROR1), PANC-1 (ATCC, catalog: CRL-1469) or A549 cell lines (Shanghai Institute of Biochemistry and Cell Biology, Chinese Academy of Sciences).
(§3) In brief, anti-ROR1 antibodies were serially diluted in staining buffer (PBS containing 2% FBS). Antibody solution was incubated with 1×10⁵ cells at 4° C. for 1 hour. […] After 1-hour incubation at 4° C., cells were washed twice with staining buffer and subjected to flow cytometry. PR000374 (Bench marker 1) and non-relevant IgG isotype control (Crownbio) were used as positive and negative controls, respectively.

[3] = molecular target: T1, Human ROR1-ECD-his (Acro Biosystems …); experiment: BLI in-tandem competition; competitor: PR303125
Text: as §1

[4] = molecular target: T1, Human ROR1-ECD-his (Acro Biosystems …); experiment: BLI in-tandem competition; competitor: PR303191
Text: as §1

[5] = molecular target: T3, human ROR1 on cells (HEK293T-hROR1, PANC-1, A549) (human, UniProt Q01973 30-937); experiment: flow cytometry on A549 cells, MFI (Mean)
T3 construct: whole, on cells; one molecule for the three cell lines; also called huROR1; cell surface ROR1
T3 sequence (Q01973 30-937): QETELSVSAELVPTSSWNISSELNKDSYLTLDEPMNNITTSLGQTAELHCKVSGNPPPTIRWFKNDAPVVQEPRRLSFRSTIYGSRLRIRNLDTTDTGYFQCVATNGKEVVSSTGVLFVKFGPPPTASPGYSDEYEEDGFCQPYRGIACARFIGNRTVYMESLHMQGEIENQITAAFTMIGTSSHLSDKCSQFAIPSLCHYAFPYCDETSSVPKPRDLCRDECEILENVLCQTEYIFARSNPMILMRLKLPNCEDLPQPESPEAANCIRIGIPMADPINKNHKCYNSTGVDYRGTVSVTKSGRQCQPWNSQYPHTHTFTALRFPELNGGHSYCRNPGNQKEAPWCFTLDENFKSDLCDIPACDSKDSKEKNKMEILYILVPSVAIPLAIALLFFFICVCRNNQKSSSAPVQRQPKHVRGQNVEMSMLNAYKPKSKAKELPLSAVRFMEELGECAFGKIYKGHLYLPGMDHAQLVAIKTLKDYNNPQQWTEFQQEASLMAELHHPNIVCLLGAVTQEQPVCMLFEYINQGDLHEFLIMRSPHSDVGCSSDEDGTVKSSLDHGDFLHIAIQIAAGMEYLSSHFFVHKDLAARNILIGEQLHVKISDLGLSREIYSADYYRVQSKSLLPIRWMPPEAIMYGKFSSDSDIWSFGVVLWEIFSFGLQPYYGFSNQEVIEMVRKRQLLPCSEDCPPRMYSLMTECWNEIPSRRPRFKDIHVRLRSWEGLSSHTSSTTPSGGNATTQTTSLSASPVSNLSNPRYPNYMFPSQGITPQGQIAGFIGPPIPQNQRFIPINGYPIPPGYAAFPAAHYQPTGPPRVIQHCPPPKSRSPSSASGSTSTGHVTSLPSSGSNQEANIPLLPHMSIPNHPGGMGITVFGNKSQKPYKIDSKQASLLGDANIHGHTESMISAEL
Procedure: as §2, §3

[6] = molecular target: T3, human ROR1 on cells (HEK293T-hROR1, …); experiment: flow cytometry on PANC-1 cells, MFI (APC-A Median)
Procedure: as §2, §3

[7] = molecular target: T2, cynomolgus ROR1 on CHO-K1-cynoROR1 cells; experiment: flow cytometry, CHO-K1-cynoROR1 cells
Procedure: as §3

[8] = molecular target: T1, Human ROR1-ECD-his (Acro Biosystems …); experiment: BLI in-tandem competition; competitor: PR303155
Text: as §1

[9] = molecular target: T1, Human ROR1-ECD-his (Acro Biosystems …); experiment: BLI in-tandem competition; competitor: PR303199
Text: as §1

[10] = molecular target: T1, Human ROR1-ECD-his (Acro Biosystems …); experiment: BLI in-tandem competition; competitor: PR303189
Text: as §1

[11] = molecular target: T1, Human ROR1-ECD-his (Acro Biosystems …); experiment: ELISA, coated hu-ROR1-ECD-his
[12] = molecular target: T1, Human ROR1-ECD-his (Acro Biosystems …); experiment: BLI, ROR1-His on HIS1K sensor, antibody in solution
Procedure, shortened: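 His-tagged ROR1 (20 nM) captured on HIS1K biosensors; serially diluted antibodies in kinetics buffer as analyte. Association and dissociation rate constants measured by Octet biolayer interferometry, sensors regenerated with 10 mM glycine-HCl pH 1.5 between cycles.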

| Binder | Inhibition (%) [1] [%] | EC50 (read off the curve) [2] [nM] | Inhibition (%) [3] [%] | Inhibition (%) [4] [%] | EC50 (read off the curve) [5] [µg/mL] | EC50 (read off the curve) [6] [nM] | EC50 [7] [µg/mL] | MAX(MFI) [7] [MFI] | Inhibition (%) [8] [%] | Inhibition (%) [9] [%] | Inhibition (%) [10] [%] | EC50 [11] [µg/mL] | Kd [12] [nM] | koff [12] [s⁻¹] | kon [12] [M⁻¹ s⁻¹] |
| --- | --- | --- | --- | --- | --- | --- | --- | --- | --- | --- | --- | --- | --- | --- | --- |
| B1 | -8.53 | ~4 | -45 | -34 | ~0.6 | ~5 | 0.314 | 1.05e+07 | -67 | -61 | -52 | 0.001 | – | – | – |
| B2 | – | – | 80 | 80 | – | – | 0.03 | 9.24e+06 | -62 | -57 | -99 | 0.001 | 0.0395 | 0.000115 | 2.9e+06 |
| B3 | – | – | 104 | 109 | ~0.2 | – | 0.222 | 8.27e+06 | -62 | -48 | -24 | 0.002 | < 0.001 | < 1e-07 | 165000 |
